Our source for the fold signal over plasma background and sensitivity of the bridge assay values is patent publication US20240018268A1.

The assay concerns the target binding reagent of the similar bridge assay for the anti-CD19 (SJ25C1) CAR. As to the kind of experiment: similar bridge assay for the anti-CD19 (SJ25C1) CAR.

Some results are limits rather than exact numbers.

Chain of binding reagent of the similar bridge assay for the anti-CD19 (SJ25C1) CAR (scFv, as listed by the source limits assumed): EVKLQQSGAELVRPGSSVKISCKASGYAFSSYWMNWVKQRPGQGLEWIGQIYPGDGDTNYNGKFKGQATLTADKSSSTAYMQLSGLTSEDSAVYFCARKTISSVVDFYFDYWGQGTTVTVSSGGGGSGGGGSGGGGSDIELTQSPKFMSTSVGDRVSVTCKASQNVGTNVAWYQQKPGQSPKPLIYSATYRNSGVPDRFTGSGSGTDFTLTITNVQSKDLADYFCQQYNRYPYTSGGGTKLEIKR

B1: anti-idiotype antibody clone A-1 (anti-ID A-1) (antibody, mouse IgG1, kappa, V domains shown)
VH: QVQLQQPGSELVRPGGSVKLSCKASDYTFTSYWMHWVRQRPGQGLEWIGNIYPGSGGTNYDEKFKRKATLTVDTSSSTAYMQLRSLTSEDSAVYYCTREVTTVAYYYSMDYWGQGTSVTVSS
VL: DIQMTQTTSSLSASLGDRVTISCRASQDISNYLNWYQQKPDGTVKLLIYYTSRLHSGVPSRFSGSGSGTDYSLTISNLEQEDIATYFCQQGKTVPFTFGSGTKLEIKR
Consider B1, for which the fold signal over plasma background was > 5 fold and the sensitivity of the bridge assay was < 100 ng/mL.
